# Laboratory results reported in US20040048327A1 (GEORGIA TECH RESEARCH, published 2004).
# Numbered stars: 1 amine (or outer) side, 2 acyl side, 3 side chain; on linkers, the order of the positions; unused ones are H or OH. Square brackets hold non-standard residues; d marks the D form. Ends that are not written are not given here. * marks the point of attachment. AAsn = aza-asparagine, NC(=O)CN(N[*:1])C(=O)[*:2]; AAsp = aza-Asp, O=C(N(CC(=O)[*:3])N[*:1])[*:2]; azaAsp = O=C(N(CC(=O)[*:3])N[*:1])[*:2]; PhPr = N-terminal cap as named (PhPr); trans‑EP‑CH2CH2Ph = not defined here; azaAsn = NC(=O)CN(N[*:1])C(=O)[*:2]; Hydrocinnamoyl = O=C(CCc1ccccc1)*; (S,S)‑EP = not defined here; Cbz = O=C(OCc1ccccc1)*; NHBn = c1ccc(CN*)cc1
# T1: autolytically stable caspase-1 variant (D381 E) (UniProt P29466 120-404, limits assumed)
# T1 sequence (looked up): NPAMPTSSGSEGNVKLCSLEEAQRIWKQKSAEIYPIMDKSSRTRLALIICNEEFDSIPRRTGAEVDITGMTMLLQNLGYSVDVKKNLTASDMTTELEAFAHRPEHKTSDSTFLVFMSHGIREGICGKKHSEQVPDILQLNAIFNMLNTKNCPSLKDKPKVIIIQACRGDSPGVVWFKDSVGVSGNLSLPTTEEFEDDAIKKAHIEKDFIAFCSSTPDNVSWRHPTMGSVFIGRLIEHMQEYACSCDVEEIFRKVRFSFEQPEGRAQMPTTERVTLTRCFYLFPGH
# T2: caspase-3 (UniProt P42574 29-277, limits assumed)
# T2 sequence (looked up): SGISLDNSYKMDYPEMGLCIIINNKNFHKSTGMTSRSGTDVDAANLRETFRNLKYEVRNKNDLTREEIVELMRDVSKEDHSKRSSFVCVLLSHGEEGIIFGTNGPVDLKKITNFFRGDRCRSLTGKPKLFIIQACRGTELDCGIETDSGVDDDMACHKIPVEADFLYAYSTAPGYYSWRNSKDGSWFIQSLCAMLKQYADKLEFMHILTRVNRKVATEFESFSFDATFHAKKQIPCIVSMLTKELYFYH
# T3: schistosome legumain SmAE (Schistosoma mansoni asparaginyl endopeptidase) (Schistosoma mansoni, UniProt P09841 32-291)
# T3 sequence (looked up): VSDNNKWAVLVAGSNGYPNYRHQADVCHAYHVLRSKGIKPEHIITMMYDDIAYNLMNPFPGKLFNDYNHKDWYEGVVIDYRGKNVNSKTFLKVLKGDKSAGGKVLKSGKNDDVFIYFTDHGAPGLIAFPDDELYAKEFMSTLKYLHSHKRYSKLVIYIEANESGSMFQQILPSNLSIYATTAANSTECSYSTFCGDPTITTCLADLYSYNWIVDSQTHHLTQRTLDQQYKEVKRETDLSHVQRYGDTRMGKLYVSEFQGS
# Legend:
# Test in all cases: cell-based or functional assay
# [1] = target: T1, autolytically stable caspase-1 variant …
# caspase-3 = target: T2, caspase-3
# [2] = target: T3, schistosome legumain SmAE (Schistosoma …)
Binder,k2 [1] [M⁻¹ s⁻¹],k2 (caspase-3) [M⁻¹ s⁻¹],IC50 [2] [nM]
"Cbz-DEVD (not fully specified (residue 4, C-terminus); printed as Cbz-Asp-Glu-Val-AAsp-(2R, 3R)-EP-COOEt) [Cbz-Asp-Glu-Val-AAsp-(2R, 3R)-EP-COOEt]",4320,464000,
"Cbz-Glu-Val-[azaAsp]-{(2S,3S)‑EP‑COOEt} [Cbz-Glu-Val-AAsp-(2S,3S)-EP-COOEt]",58500,50500,
"Cbz-Val-[azaAsp]-{(S,S)‑EP‑COOH} [Cbz-Val-AAsp-(S, S)-EP-COOH]",,1110,
Cbz-Val-[AAsp]-{(trans)‑EP‑CH2CH2Ph} [Cbz-Val-AAsp-(trans)-EP-CH2CH2Ph],,310,
"Hydrocinnamoyl-Val-Ala-[AAsp]-{(S,S)‑EP‑COOEt} [PhPr-Val-Ala-AAsp-(S,S)-EP-COOEt]",32200,1040,
"Hydrocinnamoyl-Val-Ala-[AAsp]-{(R,R)‑EP‑CONHCH2CH2Ph} [PhPr-Val-Ala-AAsp-(R,R)-EP-CONHCH2CH2Ph]",950,,
"Cbz-Ala-Ala-[AAsn]-{(S,S)‑EP-COOCH2Ph} (reading uncertain; also: printed as Cbz-Ala-Ala-AAsn-(S, S)-EP-COOCH2Ph) [Cbz-Ala-Ala-AAsn-(S, S)-EP-COOCH2Ph]",,,47
"Hydrocinnamoyl-Val-Ala-[AAsp]-{(R,R)‑EP‑CO-Ala-NHBn} [PhPr-Val-Ala-AAsp-(R,R)-EP-CO-Ala-NHCH2Ph]",268,,
"Cbz-DEV[azaAsp]-{(S,S)‑EP‑CONHCH2Ph} [Cbz-Asp-Glu-Val-AAsp-(S,S)-EP-CONHCH2Ph]",25400,1.1e+06,
"Cbz-DEV[azaAsp]-{(S,S)‑EP‑CO-Phe-NH2} [Cbz-Asp-Glu-Val-AAsp-(S,S)-EP-CO-Phe-NH2]",9250,722000,
"PhPr-Val-Ala-[AAsp]-{(S,S)‑EP‑CO-Ala-NHBn} [PhPr-Val-Ala-AAsp-(S,S)-EP-CO-Ala-NHCH2Ph]",13400,260,
"Hydrocinnamoyl-Val-Ala-[AAsp]-{(2R,3R)‑EP‑COOCH2Ph} [PhPr-Val-Ala-AAsp-(2R, 3R)-EP-COOCH2Ph]",1860,,
"Hydrocinnamoyl-Val-Ala-[AAsp]-{(R,R)‑EP‑CO-Phe-NH2} [PhPr-Val-Ala-AAsp-(R,R)-EP-CO-Phe-NH2]",330,,
"Cbz-IET[azaAsp]-{(S,S)‑EP‑COOCH2Ph} [Cbz-Ile-Glu-Thr-AAsp-(S,S)-EP-COOCH2Ph]",45800,9540,
"Cbz-IET[azaAsp]-{(2R,3R)‑EP‑COOEt} [Cbz-Ile-Glu-Thr-AAsp-(2R,3R)-EP-COOEt]",13300,2630,
"Cbz-Val-[azaAsp]-{(S,S)‑EP‑COOEt} [Cbz-Val-AAsp-(S,S)-EP-COOEt]",,3650,
"PhPr-Val-Ala-[AAsp]-{(2S,3S)‑EP‑COOCH2Ph} [PhPr-Val-Ala-AAsp-(2S, 3S)-EP-COOCH2Ph]",52100,1470,
"Cbz-Glu-Val-[azaAsp]-{(R,R)‑EP‑CO-Phe-NH2} [Cbz-Glu-Val-AAsp-(R,R)-EP-CO-Phe-NH2]",1040,470,
Hydrocinnamoyl-Val-Ala-[AAsp]-{trans‑EP‑CH2CH2Ph} (reading uncertain; also: printed as PhPr-Val-Ala-AAsp-trans-EP-CH2CH2Ph) [PhPr-Val-Ala-AAsp-trans-EP-CH2CH2Ph],300,,
"PhPr-Val-Ala-[AAsp]-{(S,S)‑EP‑CO-Leu-NH2} [PhPr-Val-Ala-AAsp-(S,S)-EP-CO-Leu-NH2]",26100,420,
"Cbz-Ala-Ala-[AAsn]-{(S,S)‑EP-CON(nBu)2} (reading uncertain; also: printed as Cbz-Ala-Ala-AAsn-(S, S)-EP-CON(nBu)2) [Cbz-Ala-Ala-AAsn-(S, S)-EP-CON(nBu)2]",,,68

Binder,k2 [1] [M⁻¹ s⁻¹],k2 (caspase-3) [M⁻¹ s⁻¹],IC50 [2] [nM]
"Hydrocinnamoyl-Val-Ala-[AAsp]-{(S,S)‑EP‑COOCH2CH2Ph} [PhPr-Val-Ala-AAsp-(S,S)-EP-COOCH2CH2Ph]",56600,2110,
"Cbz-IET[azaAsp]-{(R,R)‑EP‑COOCH2Ph} [Cbz-Ile-Glu-Thr-AAsp-(R, R)-EP-COOCH2Ph]",13000,3120,
"PhPr-Val-Ala-[AAsp]-{(S,S)‑EP‑CONHCH2CH2Ph} [PhPr-Val-Ala-AAsp-(S,S)-EP-CONHCH2CH2Ph]",17200,1110,
"Hydrocinnamoyl-Val-Ala-[AAsp]-{(R,R)‑EP‑CONHCH2Ph} [PhPr-Val-Ala-AAsp-(R,R)-EP-CONHCH2Ph]",1630,,
"Cbz-Ala-Ala-[azaAsn]-{(2R,3R)‑EP‑COOEt} [Cbz-Ala-Ala-AAsn-(2R, 3R)-EP-COOEt]",,,788
"PhPr-Val-Ala-[AAsp]-{(S,S)‑EP‑CO-Tyr-NH2} [PhPr-Val-Ala-AAsp-(S,S)-EP-CO-Tyr-NH2]",3240,87,
"Hydrocinnamoyl-Val-Ala-[AAsp]-{(S,S)‑EP‑CONHCH2CH3} [PhPr-Val-Ala-AAsp-(S,S)-EP-CONHCH2CH3]",,1910,
Cbz-Val-[AAsp]-{(trans)‑EP‑Ph‑4‑Cl} [Cbz-Val-AAsp-(trans)-EP-Ph-4-Cl],,145,
"Cbz-IET[azaAsp]-{(S,S)‑EP‑CO-Ala-NHBn} [Cbz-Ile-Glu-Thr-AAsp-(S,S)-EP-CO-Ala-NHCH2Ph]",,3050,
PhPr-Val-Ala-[AAsp]-{trans‑EP‑COOCH2Ph} [PhPr-Val-Ala-AAsp-trans-EP-COOCH2Ph],18100,680,
"Cbz-IET[azaAsp]-{(2S,3S)‑EP‑COOEt} [Cbz-Ile-Glu-Thr-AAsp-(2S, 3S)-EP-COOEt]",12400,4080,
"PhPr-Val-Ala-[AAsp]-{(S,S)‑EP‑CONHCH2CH(OH)Ph} [PhPr-Val-Ala-AAsp-(S,S)-EP-CONHCH2CH(OH)Ph]",12300,510,
"Hydrocinnamoyl-Val-Ala-[AAsp]-{(R,R)‑EP‑COOEt} [PhPr-Val-Ala-AAsp-(R,R)-EP-COOEt]",6290,,
"Cbz-DEVD (not fully specified (residue 4, C-terminus); printed as Cbz-Asp-Glu-Val-AAsp-(2S, 3S)-EP-COOEt) [Cbz-Asp-Glu-Val-AAsp-(2S, 3S)-EP-COOEt]",11800,1.07e+06,
"Cbz-DEV[azaAsp]-{(S,S)‑EP‑COOCH2Ph} [Cbz-Asp-Glu-Val-AAsp-(S,S)-EP-COOCH2Ph]",54700,1.92e+06,
"Cbz-IET[azaAsp]-{(R,R)‑EP‑CONHCH2Ph} [Cbz-Ile-Glu-Thr-AAsp-(R, R)-EP-CONHCH2Ph]",18100,6480,
"Cbz-Glu-Val-[azaAsp]-{(S,S)‑EP‑CONHCH2CH2Ph} [Cbz-Glu-Val-AAsp-(S,S)-EP-CONHCH2CH2Ph]",41100,27300,
"PhPr-Val-Ala-[AAsp]-{(S,S)‑EP‑CO-Phe-NH2} [PhPr-Val-Ala-AAsp-(S,S)-EP-CO-Phe-NH2]",32700,625,
"Hydrocinnamoyl-Val-Ala-[AAsp]-{(S,S)‑EP‑CONHCH2Ph} [PhPr-Val-Ala-AAsp-(S,S)-EP-CONHCH2Ph]",65900,1610,
"Cbz-Ala-Ala-[AAsn]-{(S,S)‑EP-COOCH2CH2Ph} (reading uncertain; also: printed as Cbz-Ala-Ala-AAsn-(S, S)-EP-COOCH2CH2Ph) [Cbz-Ala-Ala-AAsn-(S, S)-EP-COOCH2CH2Ph]",,,45
"Hydrocinnamoyl-Val-Ala-[AAsp]-{(R,R)‑EP‑CONHCH2CH(OH)Ph} [PhPr-Val-Ala-AAsp-(R,R)-EP-CONHCH2CH(OH)Ph]",400,,
